Laboratory results: a protein production outcome set (Wang et al. 2014)

Test: label from the status in PepcDB records

| Sequence | protein production |
| --- | --- |
| MNHSFRTGITGRRFSAMRVPYGRSRRTHRNGGAGREGTTMTTTTTPTTTTPTSPPTVKAPTVKAPTAKTATAKTADNPVLRVAPASPAAAAAYFGASLAFHADVSDVATALAAGGDPGFVVLDSRSTASWDQGHVPGAVHLPTALIPEQAEQLLDRSVPVVTYCWGPGCNGATRAALALAELGFQVKEMLGGFEYWVREGFEYETWEGRDHRVADPLTAPVDADDCGC | failed |
| MKTHFYRLKFKKSIFFAVFLSFFSLLFAVDYFEEGKKLLYADKPQEAVSALFKASQEAGTPKSVYLYLGVAYFRMGKYSEALTYLSQGKDKDILNGHLYYYNIGNVYFLQNQFEASELAYNEAISSNGLYAPAFLNRANTRIKLEKLEGALQDYKIYLNLNPETLQRSSIEKMISLLEGLAEEAERAKALAEAKKAAEEAERLAAEARYKKLMEDVNANLSSVDNADALSAGADNTIDYSEENELD | failed |
| MMFLHGSRQAVIAALVGLVITVTAFSYLRYQENQVVHDALEAETYNLQRDIRQSLVSHLFVAELLAREWERSDLSIEERWKENADIVTLYYQNVQGITWLNDELDIELIYPQNEQPELLGTPFAKTPLLEKLKASEGNRHAMMGPAGNLGRISSDIAIFVRVEQQDQTHGFLGFVISLQSLFNNVVRSNISEGFQLSVRSDNDILYQFAGDTSLREEWSHFHSLQLVGNSWELSVWPTAGHLEQLRGGISLAALIAGLLVTSMLTFVLYILGQSRFKAQQLADSNIELYSEIDERERIEKQMAYLAEHDSLTGLVNRNALKRILGEWLETESPHKKAALLFIDLDRFKEVNDALGHTVGDELLRRVARRITKLAPKGSVLARAGGDEFLLAIAKPDSRESIIKLSEQMLQALDTHFFVDVYELFISASIGVTFADDADFNAEYFIRNADTALYQAKEHGRNTYKVYDKAIHRDLTKKLELVKRLRHAVSKQQLTVYYQPKVELGSRRISGLEALVRWVDDDGSIIPPDEFIPLAEDTGLIIPISEYVMEEAFLQLKQWHELGFDELSIAINISGKQLHLADLVDDIMERVNEAQIPPNKVELELTEQVFIENIQSHTRFMHSVREQGMSLAIDDFGVGYSSLSYLKNFPVTSLKIDRSFVRDLPHNEDDATITQTIISLARNLNLQLVAEGIETEEQVEFLLQRECSTGQGFLFSKPVPARQITELLQQYKGLIPIQIA | failed |
| MNVYFLGGGNMAAAVAGGLVKQGGYRIYIANRGAEKRERLEKELGVETSATLPELHSDDVLILAVKPQDMEAACKNIRTNGALVLSVAAGLSVGTLSRYLGGTRRIVRVMPNTPGKIGLGVSGMYAEAEVSETDRRIADRIMKSVGLTVWLDDEEKMHGITGISGSGPAYVFYLLDALQNAAIRQGFDMAEARALSLATFKGAVALAEQTGEDFEKLQKNVTSKGGTTHEAVEAFRRHRVAEAISEGVCACVRRSQEMERQYQ | not failed |
| MNDLLSSYLPVLIFIVVSAVIAGGLLVIPYIVAYRSPDPEKLSAYECGFNSFNDARMKFDIRFYLVSILFIIFDLEVAFLFPWAVSFGSIGMFGFWSMIIFLALLTVGFIYEWKKGALEWD | failed |
| MVIGSGVFLTRTCYLRLQPPSLVLRRRFCAATTACSVPLNGNKKKKSEKEKVIVISGPTGAGKSRLAMELAKRLNGEIISADSVQVYKGLDVGSAKPSDSDRKVVPHHLIDILHPSQDYSVGQFYDDGRQATKDILNRGRVPIVTGGTGLYLRWFMYGKPDVPKPSPEVIAEAHDMLVGFQTEYNWDAAVELVVNAGDPKASSLPRNDWYRLRRSLEILKSTGSPPSSFRIPYDSFRVNLVAPDADDFLEDGSSADISIQNIETDLDYDFLCFFLSSPRVALYRSIDFRCEDMLSGPNGVLSEARWLLDLGLLPNSNPATRAIGYRQAMEYLLQCRRYEGESSPREFYAFLNKFQTASRNFAKRQMTWFRCEPMYHWLNASKPLDSILQCIYDAYESEAEMVEIPESLRMSKDVRDSREASELKGYRSKNRHFVRREDCSSVLEWIRSEGCKSEASCVESAIA | failed |
| AGGTTPAELRAAAADFTWLLNRFATETAGVVDAIAVSSDGLLIAVSELREHADSERLAAIVSGITSLAAGASGNYGLGGLNKVIIDLEGGHVLVSAIGSGAVLGVVTDKEAKLGNIAYEMTLFANRAGAALS | failed |
| MAQRGDPPPLRQYVAVRARLVGSGLVVGLLLGGLGMAGWTLYTGDARSSEATVFALGAMVFGFGLLGWSGSILAGRGIEAMQEHMDTRSNWTERDSRRAMARLCGGGGGIMVGTSVVAALL | failed |
| MSGREFLQKLLDGERVEWKALGEIIQLEKGRQLNKDLLSSSGRYPAYNGGMSYSGFTDSYNYSENKTIISQGGASAGFVNFVTTKFYANAHCYVVLPDTEVVDNRYIYHFLKLNEERLTSCQHGAGIPALRASEITSLKIPIPCPDNPKKSLAIQAEIVRILDAFTELTAELTAELTARKKQYAYYRDRLLTFTTPPYGHPSKGGELFSLFGHPSEGGELFTPYGHSVEERELNSPSLKGWQAQPDGVVPVEWKTLGEVGHFIRGSGIQKSDFKASGVGCIHYGQIHTHYGTWTTETKSFIDPEFANRLKKAKPGDLVIATTSEDDDAVAKAVAWIGTEDVAVSTDAYIFRHTANPKYMSYFFQTDMFQEQKKPYITGTKVRRISGDNLAKILIPIPPLAEQERIVAILDQFDALTNSLTEGLPREIELRQKQYAYYRDLLFSFPKASFGGVPEGRDQFPSFGGVPEGRGGLNALEHHHHHH | failed |
| MYQAVVFFDLDGTLMQDDKTVAASSVRAIQQLRANHVLPVIATGRNVFEVQDVMTTTGIDSIVSANGSYVAYQGQFLSAHELDKELLTDITHFANRQQNALAYYNNAGFALSHRDALTTSNYRALRQTARVAPHFYEHQHINFLLTFDPLNAAQYRQRYRGRLHFVRNNPRALDTMQWGVSKAVGIQDILTKAHLTKVPTYAFGDQLNDIEMFRMIQTPIAMGNGHPQVKQLARYVTADNMHGGIAQGLQHFDLI | failed |
| MQLWIYGVLIRLVTPAVFVWLWLRGGKDSRYRQNWSERLALGSVDKKQHGCLVIHSVSVGETLAAKRLIEQLLRQEPGQKILITCMTPTARELIQQHFADTVSCRYWPIDSPGAAKRFVRKFKPKAVWVMETELWPQMLNQFSKANIPVALLNARLSARSAAGYRRFHWLMKKVWKQLTLVSVQNKETARRMKVLGVPDSVLFVDGNLKYDIELSVTDIEKALLWRQSCASRHVWLASSSHPGEHELLLEAHKLIQQDLSNSCLIIAPRHPEQFEVVAKMIRESGLKLARRSESNAIPEDCDVFLADSMGEMMLWGQLASASFVGGSIIERGGHNPLEVIAAGSNVMSGRHVFNFPQVYGELAKAGAVQWVNNAGEIKQAVELMQQTAVMKAQHEAAKSVLQTHQGATLRVLKRALEYTLTGSGMIKTEQSPQGLIRYDSDIFETIEDKHFTAQYWQQQKSIAGNSTGRATVWFIQQGDLGLLLRHYYRGGLVGKINKDRFLREPAEKSRAIHEFDLLLKLREIGLPVPRPVAARMEKTAVFSYKADILVEVIPGAVDVFRLLREKKLSAELWQKLGSVIKELHDTGVYHSDLNCHNLMLDDKDKAWIVDFDKCDFRENGDWKEANIQRLLRSLRKEKEKNETFYWKESRDWPELLTGYRR | failed |
| MRSFLLGGVRPRDFWSMLKNLALRVDGEGAMDIGAWLRDQGLGQYEGTFRQNDIDPEVLRHLTAEDLIGVGVASVGHRRKLLAAIAALREVAEQPSGAAGFGATPVINPEAERRQLTVMFVDLVESTRLSSRLDPEEMGELLRGYQRAVAGAIARFEGHVAKYMGDGVLAYFGYPRAHEDEAERAVRAGLAAIDAVRKLQPPHGETLEARVGIATGLVVVGELIGEGAAREETVIGETPNLAARLQSVAEPGAVVVASATRQLIGGLFDLAELGFHPLKGFAASIPAWRVLGESSAESRFEAFHGASLTPLVGREHDIGLLLKRWEAVKKGKGRVVLLAGEPGIGKSRLVRALRRRLEGEPHTTVSHYCSPYHQTSPLYPVIRLLERAAGFAAEDPPEVKLSKLEALLTQSIEEVADAAPLLAALLSVPADDRYQPLELSPHRQKKRMLEVLVDQLIGLAARQPILAVYEDVHWADPTSLELLDLVVDRVQDSPVLVLITFRTEFLPPWTRYPHVTVLTLSRLSRRQGAEMVDRLTGRRALPTEVLDQIVAKTDGVPLFVEELTRAILETSLLKAEGDHYALARPLSAISIPATLHESLLARLDRLAPAREVMQVAAAIGREFSHELLVTAAPLQASEVEEALEDLIASGLVFRHGTPPQLTYSFKHALVRDAAYATLVRTKRQRLHAAIATAIEQRFPEMVQTQPELLAQHYAEAGRLEPAVNYWLRAGQAEIARSATTEAISHLTRGLELLEGLPDDAARLRKELELQVALSVALMTAKGWAAPEVGRANARARNLCERLGDKSRLFPVLYGDWVFHVVRAELEAGRKAGEELLRRAQEEREVSAEIVGNRIAGTGAFLRGEIANAREYLERSLALYDPQQHRALAFLFAQDPRVAGLSVLSLTLFALGYPEQAQARSNEALADARELSHSNTLGFALLYGCILSQLRGDWREARDRAGSLITLARAQGSPHFLGAGKILQGWTLGQTGELPAASTKVQEGLASWQMTGARFLVPYFLSLLARVETQSAGAKRALDLLTDALQRARETGERWFEAELHRLTGELMLQLPAFDRAEGEARLQHAVELARGQGADLWELRAATSLARLRIGQNRFGDVHHLLAPLCGKFAEGFATTDLQSAQRLLREAAGFDGAIKSSD | failed |
| MAAVILESIFLKRSQQKKKTSPLNFKKRLFLLTVHKLSYYEYDFERGRRGSKKGSIDVEKITCVETVVPEKNPPPERQIPRRGEESSEMEQISIIERFPYPFQVVYDEGPLYVFSPTEELRKRWIHQLKNVIRYNSDLVQKYHPCFWIDGQYLCCSQTAKNAMGCQILENRNGSLKPGSSHRKTKKPLPPTPEEDQILKKPLPPEPAAAPVSTSELKKVVALYDYMPMNANDLQLRKGDEYFILEESNLPWWRARDKNGQEGYIPSNYVTEAEDSIEMYEWYSKHMTRSQAEQLLKQEGKEGGFIVRDSSKAGKYTVSVFAKSTGDPQGVIRHYVVCSTPQSQYYLAEKHLFSTIPELINYHQHNSAGLISRLKYPVSQQNKNAPSTAGLGYGSWEIDPKDLTFLKELGTGQFGVVKYGKWRGQYDVAIKMIKEGSMSEDEFIEEAKVMMNLSHEKLVQLYGVCTKQRPIFIITEYMANGCLLNYLREMRHRFQTQQLLEMCKDVCEAMEYLESKQFLHRDLAARNCLVNDQGVVKVSDFGLSRYVLDDEYTSSVGSKFPVRWSPPEVLMYSKFSSKSDIWAFGVLMWEIYSLGKMPYERFTNSETAEHIAQGLRLYRPHLASEKVYTIMYSCWHEKADERPTFKILLSNILDVMDEES | not failed |
| MMHISVGATEMSWLSSLKSVFSPSQEVKEDDVQTILQSYSLENSSFVLKDRITQINVEGRILQLTIKTFPEEADHLQQIHDELADALQKAGIQELNLHVIQQKTAPRTEPKSSSSTTSSSSHLPPVVDASASPTPDPNNPPIQKKAPIQSEVPAHPRIKNVILVSSGKGGVGKSTTTVNLALALQKQGLKVGVLDADIYGPSIPTMLGNAGRTPKIENENFVPLDAYGLAVLSIGHLTGDNNTPVAWRGPKATGALMQLFNQTLWPDLDVLVIDMPPGTGDIQLTLAQRIPVTGALIVTTPQNVALLDASKGIELFNRVGIPVVGVIENMSTHICSNCGFEEQIFGVGGGDKLSEQYDIPLLGRLPLNAQIRENADKGQPSVIAQDTAAESYQMIAQALWTRVEQLPQRARDDKRIFLEHHHHHH | failed |
| MSAQFMTTVPVVLYLALSFGVALWARGRTAEGGSAKDIIEEYYIGGRSMGGFVLAMTIIASYTSAGSFVGGPGVAYRLGLSWVLLAMIQVPTTFLTLGVLGKRFAIVARRAGAVTLTDYLLARYRSHTVVILCSAALLVFFMAAMLAQFIGGARLFQTVTGYPYVVGLALFGVTVVLYTAVGGFRAVVVTDAVQGIVMVVAVVVVLLAVIDAGGGMTQCIATLKAIDPGLITPTGPGDAVPQPFMLSFWVLVGLGVLGLPQTTQRCMGYRDSRAMHDAMIIGTLLIGFMILCAHLAGTLGRAVLPDLPAGDLAMPSLIVQLLSPFWAGVFIAGPLAAIMSTVDSMLLLASAAIVKDLYVRYRLGGDTSRLRPVTMKRMSVASTAVIGVLVFVAAMEPPDLLVWINLFAFGGLEAVFLWPLVLGLYWRRGNATGAIASILSGVTAFVWLTIAKPDMGGIHAIVPTTLLSLVMFVAGSLAGRPSGREVDALFGGERS | failed |
